Measured values from article PMC10433997, “Highly Cross-Reactive and Protective Influenza A Virus H3N2 Hemagglutinin- and Neuraminidase-Specific Human Monoclonal Antibodies” (Microbiology Spectrum, 2023).
Changes are numbered by the printed parent chain.

Columns and labels:
[1] = target: recombinant hemagglutinin (HA) of A/Netherlands/219/03 H7N7 (Influenza A virus …, UniProt Q6VMK1, strain); test: ELISA; conditions: both partners purified
[2] = target: T1, H3 hemagglutinin protein of A/Brisbane/10/2007 H3N2 (Influenza A virus A/Brisbane/10/2007 …, UniProt A8W8K8, strain); test: cell-based or functional assay
[3] = target: T2, hemagglutinin (HA) of A/Switzerland/9715283/2013 H3N2 (Influenza A virus …, strain); test: cell-based or functional assay
[4] = target: T1, H3 hemagglutinin protein of …; test: cell-based or functional assay; remark: listed apart in the source
[5] = target: T2, hemagglutinin (HA) of …; test: cell-based or functional assay; remark: listed apart in the source
[6] = target: T3, hemagglutinin (HA) of A/Hong Kong/1/1968 H3N2 (Influenza A virus A/Hong Kong/1/1968 …, UniProt Q91MA7); test: immunostaining of cells or tissue; conditions: one partner purified
T3 construct: source: MDCK cells infected with the virus (BEI Resources)

B1: 1092E4 H3-specific human monoclonal antibody (antibody, V domains shown)
VH: QVQLVQSGAEVKKPGASVKVSCKASGYSFTRYGISWVRQAPGQGLEWMGWISAYTGNTDYAQKFQGRITMTTDTSTSTVYMELRSLRSDDTAVYYCARDHPQGVVILGSYYYGMDVWGQGNTVTVSS
VL: EIVLTQSPGTLSLSPGERATLSCRASQSVTSRYLAWYQQKLGQAPRLLIYGASSRATGIPDRFSGSGSGTDFTLTISSLEPEDFAVYYCQQSGSPRTFGQGTKVEIK
notes: also called H3 hMAb 1092E4; source: HEK293T, transfected; IgG captured and eluted from Magne protein A beads
binding result [1]: binds
hemagglutination inhibition (HAI) IC50, virus A/Brisbane/10/2007 H3N2 [2]: 3.13 µg/mL
hemagglutination inhibition (HAI) IC50, virus A/Switzerland/9715293/2013 H3N2 [3]: 50 µg/mL
microneutralization IC50, virus A/Brisbane/10/2007 H3N2 [4]: 0.1 µg/mL
microneutralization IC50, virus A/Switzerland/9715293/2013 H3N2 [5]: 6.25 µg/mL
binding result [6]: binds

B2: 1092C4 H3-specific human monoclonal antibody (antibody, V domains shown)
VH: B1 VH with Q1E, V79A, H100L
VL: B1 VL with F84L
notes: also called H3 hMAb 1092C4; source: HEK293T, transfected; IgG captured and eluted from Magne protein A beads
binding result [1]: binds
hemagglutination inhibition (HAI) IC50, virus A/Brisbane/10/2007 H3N2 [2]: < 0.05 µg/mL
hemagglutination inhibition (HAI) IC50, virus A/Switzerland/9715293/2013 H3N2 [3]: 50 µg/mL
microneutralization IC50, virus A/Brisbane/10/2007 H3N2 [4]: 0.1 µg/mL
microneutralization IC50, virus A/Switzerland/9715293/2013 H3N2 [5]: 0.78 µg/mL
binding result [6]: binds
